Measurements as given in IntAct's records for PubMed 21527715.

B1: Complement receptor type 2 (Homo sapiens), P20023 (parent)
chain: MGAAGLLGVFLALVAPGVLGISCGSPPPILNGRISYYSTPIAVGTVIRYSCSGTFRLIGEKSLLCITKDKVDGTWDKPAPKCEYFNKYSSCPEPIVPGGYKIRGSTPYRHGDSVTFACKTNFSMNGNKSVWCQANNMWGPTRLPTCVSVFPLECPALPMIHNGHHTSENVGSIAPGLSVTYSCESGYLLVGEKIINCLSSGKWSAVPPTCEEARCKSLGRFPNGKVKEPPILRVGVTANFFCDEGYRLQGPPSSRCVIAGQGVAWTKMPVCEEIFCPSPPPILNGRHIGNSLANVSYGSIVTYTCDPDPEEGVNFILIGESTLRCTVDSQKTGTWSGPAPRCELSTSAVQCPHPQILRGRMVSGQKDRYTYNDTVIFACMFGFTLKGSKQIRCNAQGTWEPSAPVCEKECQAPPNILNGQKEDRHMVRFDPGTSIKYSCNPGYVLVGEESIQCTSEGVWTPPVPQCKVAACEATGRQLLTKPQHQFVRPDVNSSCGEGYKLSGSVYQECQGTIPWFMEIRLCKEITCPPPPVIYNGAHTGSSLEDFPYGTTVTYTCNPGPERGVEFSLIGESTIRCTSNDQERGTWSGPAPLCKLSLLAVQCSHVHIANGYKISGKEAPYFYNDTVTFKCYSGFTLKGSSQIRCKADNTWDPEIPVCEKETCQHVRQSLQELPAGSRVELVNTSCQDGYQLTGHAYQMCQDAENGIWFKKIPLCKVIHCHPPPVIVNGKHTGMMAENFLYGNEVSYECDQGFYLLGEKKLQCRSDSKGHGSWSGPSPQCLRSPPVTRCPNPEVKHGYKLNKTHSAYSHNDIVYVDCNPGFIMNGSRVIRCHTDNTWVPGVPTCIKKAFIGCPPPPKTPNGNHTGGNIARFSPGMSILYSCDQGYLLVGEALLLCTHEGTWSQPAPHCKEVNCSSPADMDGIQKGLEPRKMYQYGAVVTLECEDGYMLEGSPQSQCQSDHQWNPPLAVCRSRSLAPVLCGIAAGLILLTFLIVITLYVISKHRARNYYTDTSQKEAFHLEAREVYSVDPYNPAS

Variants of: B1
Conditions: with co3_human C3, P01024
co3_human C3, P01024, sequence (P01024 whole entry): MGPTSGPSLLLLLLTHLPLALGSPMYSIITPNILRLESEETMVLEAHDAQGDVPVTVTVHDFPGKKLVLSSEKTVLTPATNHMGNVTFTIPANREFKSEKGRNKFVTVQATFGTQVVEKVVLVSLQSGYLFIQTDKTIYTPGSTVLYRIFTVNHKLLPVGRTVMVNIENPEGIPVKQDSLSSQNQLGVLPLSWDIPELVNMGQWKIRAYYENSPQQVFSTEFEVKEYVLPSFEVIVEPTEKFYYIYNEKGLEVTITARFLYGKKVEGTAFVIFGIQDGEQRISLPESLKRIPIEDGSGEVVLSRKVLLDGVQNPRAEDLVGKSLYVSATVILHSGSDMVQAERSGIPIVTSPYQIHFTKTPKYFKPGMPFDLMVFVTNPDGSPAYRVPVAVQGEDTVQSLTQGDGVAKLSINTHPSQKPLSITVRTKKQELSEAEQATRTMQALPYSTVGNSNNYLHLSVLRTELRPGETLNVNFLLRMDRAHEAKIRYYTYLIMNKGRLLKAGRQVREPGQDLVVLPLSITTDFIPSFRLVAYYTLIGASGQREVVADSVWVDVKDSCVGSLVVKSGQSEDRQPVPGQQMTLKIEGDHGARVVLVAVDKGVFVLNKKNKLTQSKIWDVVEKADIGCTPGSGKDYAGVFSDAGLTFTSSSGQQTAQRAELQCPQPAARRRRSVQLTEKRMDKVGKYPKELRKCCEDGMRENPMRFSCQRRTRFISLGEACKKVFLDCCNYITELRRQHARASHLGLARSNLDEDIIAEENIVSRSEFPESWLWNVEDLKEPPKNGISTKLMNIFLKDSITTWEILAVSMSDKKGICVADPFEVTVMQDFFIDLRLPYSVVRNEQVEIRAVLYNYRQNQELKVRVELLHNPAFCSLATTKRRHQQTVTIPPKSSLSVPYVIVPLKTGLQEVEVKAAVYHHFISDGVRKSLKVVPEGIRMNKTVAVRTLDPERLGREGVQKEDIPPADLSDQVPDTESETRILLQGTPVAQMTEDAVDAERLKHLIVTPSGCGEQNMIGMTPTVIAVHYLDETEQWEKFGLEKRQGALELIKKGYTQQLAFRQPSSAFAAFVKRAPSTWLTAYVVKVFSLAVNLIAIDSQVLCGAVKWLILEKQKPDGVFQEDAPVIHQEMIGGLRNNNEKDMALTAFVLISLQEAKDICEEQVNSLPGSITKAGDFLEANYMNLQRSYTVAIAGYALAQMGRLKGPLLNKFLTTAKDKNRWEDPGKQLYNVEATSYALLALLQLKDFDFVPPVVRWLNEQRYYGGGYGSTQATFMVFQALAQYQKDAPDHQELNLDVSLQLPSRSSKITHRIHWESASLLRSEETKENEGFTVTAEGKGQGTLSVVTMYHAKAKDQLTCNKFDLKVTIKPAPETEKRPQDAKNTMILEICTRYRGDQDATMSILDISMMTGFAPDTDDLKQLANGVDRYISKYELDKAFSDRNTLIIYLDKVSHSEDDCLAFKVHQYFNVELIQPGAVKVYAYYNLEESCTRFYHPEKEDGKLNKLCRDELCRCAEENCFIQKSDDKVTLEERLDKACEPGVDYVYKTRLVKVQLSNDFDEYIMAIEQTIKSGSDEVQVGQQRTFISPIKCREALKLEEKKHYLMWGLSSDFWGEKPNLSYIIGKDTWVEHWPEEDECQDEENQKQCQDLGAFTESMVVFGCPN

| Variant | effect of a mutation on the interaction |
| --- | --- |
| D112A | decreasing interaction |
| K128A | decreasing interaction |
| R103A | decreasing interaction |
